Assay results published in patent publication US10864251B2, “Peptides of syndecan-1 for inhibiting angiogenesis” (Wisconsin Alumni Research Foundation, priority 2006, dated 2020).
Where two headings read alike, the source gives them in different places. Where no end group is shown, it is not given here.

Assays:
[1] = system: FGF-induced angiogenesis in the mouse cornea; experiment: Corneal pocket implant angiogenesis assay; assay type: in vivo
Method: FIG. 13—Inhibition of corneal angiogenesis by SSTN. PolyHEMA pellets (0.25 μL) containing 67 ng FGF-2 and sucralfate were implanted into the avascular mouse cornea. Alzet pumps containing PBS, 2500 μM mS1ED or a range of SSTN concentrations (0-100 μM) were implanted subcutaneously on the back of the animals and angiogenesis for 7 days. Fluorescent dextran was injected suborbitally for 2 min prior to sacrifice for observation of the vascular system in dissected cornea (picture insets). Total angiogenesis is quantified as total length of vessels growing from the limbic vessels at the margin of the cornea.
A polyhydroxyethylmethacrylate (PolyHEMA) pellet 1 μl in volume containing 100 ng FGF was implanted into pockets surgically prepared in the center of the avascular corneas of 6 wk-old Balb/c mice. Three mice were used as controls and three mice received a 0.2 ml Alzet osmotic pump implanted subcutaneously on the back of the mice. The pump was loaded with 100 μM synstatin82-130 in sterile saline and delivers 1 μl into the mouse per hr. The mice were allowed to recover and were maintained for seven days. The extent of angiogenesis was recorded by digital camera images of the living mouse. Fluorescent dextran was then injected into the vascular via retro-orbital injection 1-2 minutes prior to sacrifice. Corneas were surgically removed, mounted on slides and the extent of vascularization observed via fluorescence microscopy.
To test the efficacy of synstatin82-130 in vivo, the inventors have used the mouse corneal pocket implant angiogenesis assay. Here, angiogenesis is induced in the avascular mouse cornea by implantation of a polyHEMA pellet containing fibroblast growth factor (FGF), which is a potent angiogenic agent. The FGF will induce angiogenic outgrowth of new vessels from the limbic vessels at the margin of the cornea into the avascular region at the center of the cornea where the pellet is implanted. The inventors have tested recombinant S1ED by supplying it along with the FGF in the pellet implanted into the cornea, and have also introduced it into the systemic circulation of the mouse through the use of an osmotic pump placed subcutaneously on the back of the animal. The latter protocol more closely mimics the manner in which such an inhibitor might be delivered as a drug in patients. […] The concentration necessary for the block in vivo has not yet been measured. […] However, this is likely to be a high estimate, as clearance and degradation are likely to occur, and the protein is likely to be present in the greater volume of the mouse than just the vascular system.
Lastly, SSTN was tested in the in vivo corneal angiogenesis assay. Polyhydroxyethylmethylacrylate pellets (0.25 μL) containing 67 ng FGF-2 and sucralfate as a slow release agent were implanted into the avascular mouse cornea. After seven days, fluorescent dextran was injected suborbitally to highlight the vascular system and the mice were sacrificed. […] To supply the inhibitor in a more quantifiable and physiological manner, recombinant mS1ED or SSTN were delivered systemically via Alzet osmotic pumps implanted subcutaneously on the backs of the animals. […] To correlate this with the active concentration in the plasma, the inventors took advantage of rabbit polyclonal antibodies generated against mS1ED, which detect active SSTN on dot blots. […] Using this method to detect active SSTN in the blood collected from animals after 1 week of SSTN treatment, SSTN is shown to be in the blood at 125-150 nM when present at 10 μM in the osmotic pump.

segments of mouse aorta = assay type: cell-based; conditions: for block of VEGF-induced outgrowth: 50 ng/ml VEGF, 7 days
Method: FIG. 12—SSTN blocks aortic ring angiogenesis. Aortic segments were explanted to collagen gels for 7 days in the presence of 50 ng/ml vascular endothelial cell growth factor (VEGF), or 30 ng/ml FGF-2 in the presence or absence of mS1ED or SSTN. Total outgrowth in quantified as the total length of all microvessels.
To test the activity of SSTN as an anti-angiogenic agent, the inventors turned to the in vitro aortic ring outgrowth assay and the in vivo corneal angiogenesis model. The aortic outgrowth assay allows quantification of microvessel outgrowth from segments of mouse aorta explanted to type I collagen gels. As was found when examining the mouse aortic endothelial cell line in culture, both syndecan-1 and the αvβ3 and αvβ5 integrins appear present even on the resting mouse aorta (FIG. 11A). In addition, microvessels growing out from the aortic explant over a 7 days period in response to FGF stain positively for syndecan-1, with appears co-expressed with the αvβ3 and αvβ5 integrins (FIG. 11B). To extend this finding of syndecan-1 expression in activated endothelium, the inventors also examined two models of mouse breast tumor formation. Tumors derived from wnt-1 overexpression in the mammary gland show a high degree of vascularization, identified as internal networks lined by a thick cell layer than stains intensely for syndecan-1 and for PECAM (CD31), indicative of activated endothelium (FIG. 11C). In fact, syndecan-1 expression in these cells swamps out the positive staining for syndecan-1 seen in the mammary epithelial cells, which are known to be positive for syndecan-1. These same cell layers as positive for αv, β3 and β5 integrin subunits. A similar finding is seen in tumors arising from overexpression of β-catenin (FIG. 11C). Although the vascularization is not as extensive as in the […] tumors, there are clear thickened layers of cells that are PECAM, syndecan-1 and αvβ3/αvβ5 integrin positive in these mammary tumors.
To test the effect of SSTN on microvessel outgrowth, segments of thoracic aorta were explanted to collagen gels in the presence of either 50 ng/ml vascular endothelial cell growth factor (VEGF) or 30 ng/ml FGF-2, and incubated in the presence of either recombinant mS1ED or SSTN. Although some vessel outgrowth is observed in the absence of exogenous angiogenic agents, likely due to VEGF release by supporting cells growing out from the explant, the outgrowth is greatly (≥10-fold) increased by FGF or VEGF (FIG. 12). Addition of recombinant mS1ED blocks VEGF-induced outgrowth by more than 70% at 10 μM, and greater than 95% at 30 μM. FGF induced outgrowth requires slightly higher inhibitory concentrations (approximately 30 μM mS1ED for 70% inhibition), which may trace to a difference in susceptibility of the two integrins, as VEGF signaling is reportedly coupled to αvβ5 integrin activation and FGF signaling is coupled to αvβ3 activation. […] It should be noted that the microvessel outgrowth is accompanied by the outgrowth of support cells, most likely smooth muscle cells and fibroblasts. […] Thus, the effects of SSTN are highly localized to the vascular endothelial cells.

## SNTETAFTSVLPAGEKPEEGEPVLHVEAEPGFTARDKEKEVTTRPRETV [synstatin82-130]
[1]; 100 μM in osmotic pump, activity, eating, weight, behavior
  ill effects after one week of treatment: no ill effects
[1]; 100 μM in pump, same assumptions
  estimated systemic concentration after 24 hr: ≤ 1.2 µM
Segments of mouse aorta
  IC50: 100 nM

B1: S1ED: recombinant mouse Sdc1 ectodomain (amino acids 18-251), expressed in bacteria as GST fusion or 6×His-tagged protein (protein)
chain: QPALPQIVAVNVPPEDQDGSGDDSDNFSGSGTGALPDTLSRQTPSTWKDVWLLTATPTAPEPTSSNTETAFTSVLPAGEKPEEGEPVLHVEAEPGFTARDKEKEVTTRPRETVQLPITQRASTVRVTTAQAAVTSHPHGGMQPGLHETSAPTAPGQPDHQPPRVEGGGTSVIKEVVEDGTANQLPAGEGSGEQDFTFETSGENTAVAAVEPGLRNQPPVDEGATGASQSLLDRK
modifications: left off: a dimerising Fc or GST
notes: recombinant mouse Sdc1 ectodomain (amino acids 18-251), expressed in bacteria as GST fusion or 6×His-tagged protein
[1]; 2.4 mM in pump, 1 μl per hour, assuming 2 ml blood volume, no degradation or clearance
  estimated systemic concentration after 24 hr: approximately 29 μM
[1]; 2500 μM in Alzet pump, 67 ng FGF-2 pellet, 7 days
  corneal angiogenesis: nearly total block of angiogenesis
[1]; in the pellet with FGF or systemic via osmotic pump, 2.4 mM, 1 μl per hour
  FGF-induced corneal angiogenesis: blocks the FGF-induced angiogenesis
[1]; incorporated into the pellet
  corneal angiogenesis: reduced the angiogenesis
Segments of mouse aorta; 30 ng/ml FGF-2, 7 days
  concentration for 70% inhibition of FGF induced outgrowth: approximately 30 μM
Segments of mouse aorta; 10 μM
  block of VEGF-induced outgrowth: more than 70%
Segments of mouse aorta; 30 μM
  block of VEGF-induced outgrowth: greater than 95%
Segments of mouse aorta; aortic ring explants
  outgrowth of support cells (non-endothelial): unaffected
